Assays:
Ac-LSSR-AMC = test system: T1, Ac-LSSR-AMC
T1 sequence: LSSR

Z-GASR-CHO = test system: T2, Z-GASR-CHO
T2 sequence: GASR

Z-LSSR-CHO = test system: T3, Z-LSSR-CHO
T3 sequence: LSSR

[1] = biological target: T4, [35S]methionine-labeled human A20 (in vitro translated) (UniProt P21580)
T4 sequence: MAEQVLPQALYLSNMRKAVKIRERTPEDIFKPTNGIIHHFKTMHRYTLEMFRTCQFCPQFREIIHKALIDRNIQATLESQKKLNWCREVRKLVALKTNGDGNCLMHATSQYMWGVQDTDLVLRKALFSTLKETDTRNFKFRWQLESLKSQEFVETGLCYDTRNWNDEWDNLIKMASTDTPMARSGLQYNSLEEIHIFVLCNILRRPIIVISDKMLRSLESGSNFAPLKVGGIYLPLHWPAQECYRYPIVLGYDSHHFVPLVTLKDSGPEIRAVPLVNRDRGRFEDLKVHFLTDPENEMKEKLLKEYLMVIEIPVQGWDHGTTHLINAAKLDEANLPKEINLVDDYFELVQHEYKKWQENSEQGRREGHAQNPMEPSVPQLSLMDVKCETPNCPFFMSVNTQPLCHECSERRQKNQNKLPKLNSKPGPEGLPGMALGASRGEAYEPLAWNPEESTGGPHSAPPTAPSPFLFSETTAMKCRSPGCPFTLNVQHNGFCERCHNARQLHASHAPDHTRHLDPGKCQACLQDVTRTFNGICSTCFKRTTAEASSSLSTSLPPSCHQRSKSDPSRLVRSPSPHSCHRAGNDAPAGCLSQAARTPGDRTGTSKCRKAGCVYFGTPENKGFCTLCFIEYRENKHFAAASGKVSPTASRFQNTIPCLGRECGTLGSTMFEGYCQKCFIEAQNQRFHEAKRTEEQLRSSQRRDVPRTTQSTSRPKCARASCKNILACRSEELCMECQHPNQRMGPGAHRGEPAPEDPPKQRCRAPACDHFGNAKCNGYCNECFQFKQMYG

Sequence of MALT1C-gyraseB (chain, part): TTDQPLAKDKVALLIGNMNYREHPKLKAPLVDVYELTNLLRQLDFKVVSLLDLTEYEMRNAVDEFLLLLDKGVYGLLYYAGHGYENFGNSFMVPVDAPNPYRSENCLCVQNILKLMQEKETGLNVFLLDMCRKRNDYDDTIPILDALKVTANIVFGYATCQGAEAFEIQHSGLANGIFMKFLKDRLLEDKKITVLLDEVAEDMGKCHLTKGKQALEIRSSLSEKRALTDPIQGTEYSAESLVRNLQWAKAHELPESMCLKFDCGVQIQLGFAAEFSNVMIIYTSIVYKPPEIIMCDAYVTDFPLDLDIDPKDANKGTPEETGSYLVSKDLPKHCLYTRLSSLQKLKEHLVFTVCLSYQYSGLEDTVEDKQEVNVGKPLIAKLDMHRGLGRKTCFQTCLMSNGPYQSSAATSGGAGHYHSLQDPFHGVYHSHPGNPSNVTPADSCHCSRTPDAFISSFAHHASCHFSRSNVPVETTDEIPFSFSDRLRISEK

## MALT1C-gyraseB
Ac-LSSR-AMC
  cleavage of Ac-LSSR-AMC in vitro (fluorescence release): the recombinant MALT1 p20 fragment (Sun et al., 2004) efficiently cleaved the Ac-LSSR-AMC (see SEQ ID NO:1) substrate
Z-GASR-CHO
  Ac-LSSR-AMC cleavage by recombinant MALT1: adding Z-LSSR-CHO (see SEQ ID NO:1) or Z-GASR-CHO (see SEQ ID NO:2) completely blocked the proteolytic activity of recombinant MALT1
Z-LSSR-CHO
  Ac-LSSR-AMC cleavage by recombinant MALT1: adding Z-LSSR-CHO (see SEQ ID NO:1) or Z-GASR-CHO (see SEQ ID NO:2) completely blocked the proteolytic activity of recombinant MALT1
[1]
  in vitro cleavage of radiolabeled A20 (SDS-PAGE, autoradiography; 500, 1000 or 1500 nM enzyme): In vitro incubation of radiolabeled A20 with recombinant MALT1C-gyraseB resulted in the generation of an A20 fragment of approximately 50 kDa

Reference: patent US8309523 (VIB VZW, dated 2012)
